Measurements reported in US20240270866A1 (Alector, published 2024).
Numbering of substitutions follows the chain as printed.

B1: SA-59 (antibody, V domains shown)
VH: QVQLQESGPGLVKPSETLSLTCTVSGGSISSYYWSWIRQPPGKGLEWIGSIYYSGSTNYNPSLKSRVTISVDTSKNQFSLKLSSVTAADTAVYYCARSGGSYSYLDVWGQGTMVTVSS
VL: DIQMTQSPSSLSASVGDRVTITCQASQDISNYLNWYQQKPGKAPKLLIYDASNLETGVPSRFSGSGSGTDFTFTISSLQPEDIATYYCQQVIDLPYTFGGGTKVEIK
notes: IgG
B2: SA-1 (antibody, V domains shown)
VH: EVQLVESGGGLVQPGRSLRLSCAASGFTFGDYAMHWVRQAPGKGLEWVSGISWNSGSIGYADSVKGRFTISRDNAKNSLYLQMNSLRAEDTALYYCAKDAPYVGLDLWGRGTLVTVSS
VL: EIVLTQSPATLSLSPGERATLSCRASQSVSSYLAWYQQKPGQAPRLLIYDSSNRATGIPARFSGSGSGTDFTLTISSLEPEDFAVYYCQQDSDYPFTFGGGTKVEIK
notes: IgG
B3: SA-60 (antibody, V domains shown)
VH: EVQLVESGGGLVQPGGSLRLSCAASGFTFSSYSMNWVRQAPGKGLEWVSYISSSSSTIYYADSVKGRFTISRDNAKNSLYLQMNSLRAEDTAVYYCARTHKHFDYGMDVWGQGTTVTVSS
VL: EIVLTQSPATLSLSPGERATLSCRASQSVSSYLAWYQQKPGQAPRLLIYDSSNRATGIPARFSGSGSGTDFTLTISSLEPEDFAVYYCQDRSNLPWTFGGGTKVEIK
notes: IgG
B4: SA-4 (antibody, V domains shown)
VH: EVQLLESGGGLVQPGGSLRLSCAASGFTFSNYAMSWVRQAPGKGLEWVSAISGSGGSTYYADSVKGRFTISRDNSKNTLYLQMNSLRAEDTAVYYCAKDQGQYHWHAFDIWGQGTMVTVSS
VL: B3 VL with S51A, D90Q, R91D, L94F, W96F
notes: IgG
B5: SA-62 (antibody, V domains shown)
VH: B3 VH
VL: DIQMTQSPSSLSASVGDRVTITCQASQDIANYLNWYQQKPGKAPKLLIYDASNLETGVPSRFSGSGSGTDFTFTISSLQPEDIATYYCQQYVNYWTFGGGTKVEIK
notes: IgG
B6: SA-3 (antibody, V domains shown)
VH: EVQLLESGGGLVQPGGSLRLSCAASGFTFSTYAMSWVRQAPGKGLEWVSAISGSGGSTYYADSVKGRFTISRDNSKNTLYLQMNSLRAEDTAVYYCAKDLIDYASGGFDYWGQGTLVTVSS
VL: B3 VL with S51A, D90Q, R91H, S92D, N93F, L94W, W96P
notes: IgG
B7: SA-2 (antibody, V domains shown)
VH: QVQLVESGGGVVQPGRSLRLSCAASGFTFSSYGMHWVRQAPGKGLEWVAVISYDGSNKYYADSVKGRFTISRDNSKNTLYLQMNSLRAEDTAVYYCAKDLGGGSGGYATSDYYYGMDVWGQGTTVTVSS
VL: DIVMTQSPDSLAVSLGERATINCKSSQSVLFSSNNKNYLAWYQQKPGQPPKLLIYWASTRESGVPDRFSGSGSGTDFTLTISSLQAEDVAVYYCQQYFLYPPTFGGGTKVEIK
notes: IgG
B8: SA-43 (antibody, V domains shown)
VH: QLQLQESGPGLVKPSETLSLTCTVSGGSISSSSYAWGWIRQPPGKGLEWIGSIYYSGSTYYNPSLKSRVTISVDTSKNQFSLKLSSVTAADTAVYYCARELETSRHDIWGQGTTVTVSS
VL: DIQMTQSPSSVSASVGDRVTITCRASQGISSWLAWYQQKPGKAPKLLIYAASSLQSGVPSRFSGSGSGTDFTLTISSLQPEDFATYYCQQASAFPITFGGGTKVEIK
notes: IgG
B9: SA-47 (antibody, V domains shown)
VH: QVQLVQSGAEVKKPGASVKVSCKASGYTFTSYYMHWVRQAPGQGLEWMGIINPSGGSTSYAQKFQGRVTMTRDTSTSTVYMELSSLRSEDTAVYYCAREVGVSGWEITYGMDVWGQGTTVTVSS
VL: B8 VL with A91I, A93S, F94Y
notes: IgG
B10: SA-58 (antibody, V domains shown)
VH: QLQLQESGPGLVKPSETLSLTCTVSGGSISSSSYAWGWIRQPPGKGLEWIGSIYYSGSTYYNPSLKSRVTISVDTSKNQFSLKLSSVTAADTAVYYCARLPMGCGSGMDVWGQGTTVTVSS
VL: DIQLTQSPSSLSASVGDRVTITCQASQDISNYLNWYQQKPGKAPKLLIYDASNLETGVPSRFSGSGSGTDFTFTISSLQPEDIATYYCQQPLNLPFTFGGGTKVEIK
notes: IgG
B11: SA-19-73 Fab (Fab, V domains shown)
VH: QVQLVESGGGLVQPGGSLRLSCAASGFTFSSYAMHWVRQAPGKGLEWVAGILYDGSNKYYADSVKGRFTISRDNSKNTLYLQMNSLRAEDTAVYYCANSDTKYTLGFAFDIWGQGTMVTVSS
VL: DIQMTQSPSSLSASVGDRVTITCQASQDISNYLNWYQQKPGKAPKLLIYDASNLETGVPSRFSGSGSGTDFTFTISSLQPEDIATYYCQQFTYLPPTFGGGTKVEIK
notes: papain Fab
B12: SA-19-75 Fab (Fab, V domains shown)
VH: B11 VH with L11V, G16R, A33G, G50V, L52A, Y59L, N98L, S99M, D100R
VL: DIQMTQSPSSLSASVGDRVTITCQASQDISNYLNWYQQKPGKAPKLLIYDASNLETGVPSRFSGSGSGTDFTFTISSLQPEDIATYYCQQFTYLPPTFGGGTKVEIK
notes: papain Fab
B13: SA-19-74 Fab (Fab, V domains shown)
VH: B11 VH with L11V, G16R, T28A, N98R, S99H, D100S, T101Q
VL: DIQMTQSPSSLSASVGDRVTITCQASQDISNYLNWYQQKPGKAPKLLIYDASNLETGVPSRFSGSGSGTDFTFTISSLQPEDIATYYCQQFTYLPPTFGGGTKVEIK
notes: papain Fab
B14: SA-19-83 Fab (Fab, V domains shown)
VH: B11 VH with L11V, G16R, S30D, A33L, G50S, L52I, N98S, S99V, D100R
VL: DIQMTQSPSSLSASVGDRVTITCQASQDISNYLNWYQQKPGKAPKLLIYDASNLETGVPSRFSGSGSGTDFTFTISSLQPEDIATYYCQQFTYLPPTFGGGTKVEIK
notes: papain Fab
B15: SA-19-80 Fab (Fab, V domains shown)
VH: EVQLLESGGGVVQPGRSLRLSCAASGFTFSSYGMHWVRQAPGKGLEWVAGILYDGSNKYYADSVKGRFTISRDNSKNTLYLQMDGLRAEDTAVYYCARHSVKYTLGFAFDIWGQGTMVTVSS
VL: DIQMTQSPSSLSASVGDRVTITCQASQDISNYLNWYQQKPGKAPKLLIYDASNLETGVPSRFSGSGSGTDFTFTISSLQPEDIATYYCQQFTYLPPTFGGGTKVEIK
notes: papain Fab
B16: SA-19-78 Fab (Fab, V domains shown)
VH: B11 VH with L11V, G16R, A33G, G50V, L52A, Y59L, N84D, N98T
VL: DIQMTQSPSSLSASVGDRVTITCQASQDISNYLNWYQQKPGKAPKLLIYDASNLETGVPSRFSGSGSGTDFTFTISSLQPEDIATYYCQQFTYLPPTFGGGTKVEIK
notes: papain Fab
B17: SA-19-79 Fab (Fab, V domains shown)
VH: B11 VH with L11V, G16R, A33G, G50V, L52A, Y59I, N98T, S99T
VL: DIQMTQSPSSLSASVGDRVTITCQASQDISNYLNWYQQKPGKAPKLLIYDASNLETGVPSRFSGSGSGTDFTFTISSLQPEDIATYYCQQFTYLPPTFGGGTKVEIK
notes: papain Fab
B18: SA-19-81 Fab (Fab, V domains shown)
VH: B11 VH with L11V, G16R, F29S, A33G, G50V, L52A, Y59L, N98R, S99T, D100P
VL: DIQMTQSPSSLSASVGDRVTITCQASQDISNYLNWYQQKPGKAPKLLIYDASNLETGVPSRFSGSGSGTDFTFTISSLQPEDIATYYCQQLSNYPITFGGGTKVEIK
notes: papain Fab
B19: SA-19-84 Fab (Fab, V domains shown)
VH: B15 VH with E1Q, L5V, G50V, L52A, Y59L, D84N, G85S, H99T, S100Q, V101L
VL: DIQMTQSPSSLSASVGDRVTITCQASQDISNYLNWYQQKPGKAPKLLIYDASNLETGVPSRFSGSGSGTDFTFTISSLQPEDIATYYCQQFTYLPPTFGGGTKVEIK
notes: papain Fab
B20: SA-19-82 Fab (Fab, V domains shown)
VH: B11 VH with L11V, G16R, N98R, S99H, D100V, T101L
VL: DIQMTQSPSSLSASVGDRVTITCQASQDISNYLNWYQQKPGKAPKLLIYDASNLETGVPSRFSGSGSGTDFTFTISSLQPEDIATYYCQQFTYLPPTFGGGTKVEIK
notes: papain Fab
B21: SA-19-72 Fab (Fab, V domains shown)
VH: B11 VH with L11V, G16R, R19G, N98R, D100N, T101E
VL: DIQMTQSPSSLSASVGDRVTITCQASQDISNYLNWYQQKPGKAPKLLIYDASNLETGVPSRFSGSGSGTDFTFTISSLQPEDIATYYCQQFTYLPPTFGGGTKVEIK
notes: papain Fab
B22: SA-19-77 Fab (Fab, V domains shown)
VH: B11 VH with L11V, G16R, A33G, H35A, G50Q, K58E, N98R, S99D, D100L
VL: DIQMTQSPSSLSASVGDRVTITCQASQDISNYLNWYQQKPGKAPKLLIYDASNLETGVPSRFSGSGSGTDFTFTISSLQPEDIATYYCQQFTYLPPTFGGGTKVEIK
notes: papain Fab
B23: SA-19-76 Fab (Fab, V domains shown)
VH: QVQLVESGGGVVQPGRSLRLSCAASGFTFSSYGMHWVRQAPGKGLEWVAVIAYDGSNKLYADSVKGRFTISRDNAKNSLYLQMNSPRAEDTAVYYCATMRTKYTLGFAFDIWGQGTMVTVSS
VL: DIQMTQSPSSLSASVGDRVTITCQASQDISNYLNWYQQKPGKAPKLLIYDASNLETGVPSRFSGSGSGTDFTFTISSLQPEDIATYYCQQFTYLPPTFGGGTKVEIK
notes: papain Fab

Assays:
[1] = target: T1, mouse SIRPA overexpressed on CHO cells (mouse, UniProt P97797 32-513); test: flow, CHO-muSIRPA;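 on relative MFI: antibody binding measured by flow cytometry: cells stained with 1 ug/ml test antibody for 1 h on ice, detected with PE-labelled secondary antibody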
T1 construct: also called CHO-muSIRPA
T1 sequence: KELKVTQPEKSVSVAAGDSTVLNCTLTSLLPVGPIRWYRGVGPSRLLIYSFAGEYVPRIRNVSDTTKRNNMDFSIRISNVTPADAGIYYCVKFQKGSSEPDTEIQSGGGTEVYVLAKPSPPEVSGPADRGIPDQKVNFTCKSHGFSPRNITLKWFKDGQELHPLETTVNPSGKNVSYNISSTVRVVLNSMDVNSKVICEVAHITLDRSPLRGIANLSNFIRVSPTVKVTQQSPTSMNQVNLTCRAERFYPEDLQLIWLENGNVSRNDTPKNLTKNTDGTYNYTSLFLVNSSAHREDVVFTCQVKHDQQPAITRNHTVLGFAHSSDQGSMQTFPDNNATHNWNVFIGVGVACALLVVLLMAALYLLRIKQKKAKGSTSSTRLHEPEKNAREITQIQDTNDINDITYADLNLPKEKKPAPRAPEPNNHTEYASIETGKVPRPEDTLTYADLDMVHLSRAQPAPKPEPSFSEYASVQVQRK

Human SIRPA D1 Fc = target: T2, Human SIRPA D1 Fc (human, UniProt P78324 32-137); test: ForteBio IgG avid;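 further: antibody IgG captured on AHQ biosensors, then 100 nM Fc-fused SIRP antigen applied for 3 min, followed by 3 min buffer dissociation, kinetics fitted to a 1:1 model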
T2 construct: not shown: human IgG1 Fc

Mouse SIRPA D1 Fc = target: T3, Mouse SIRPA D1 Fc (mouse, UniProt P97797 32-150, limits assumed); test: ForteBio IgG avid;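 further: antibody IgG captured on AHQ biosensors, then 100 nM Fc-fused SIRP antigen applied for 3 min, followed by 3 min buffer dissociation, kinetics fitted to a 1:1 model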
T3 sequence: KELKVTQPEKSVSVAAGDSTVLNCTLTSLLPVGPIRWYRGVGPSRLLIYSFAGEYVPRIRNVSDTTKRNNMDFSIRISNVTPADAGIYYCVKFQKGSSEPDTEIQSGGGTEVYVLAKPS
Description: (§1) Briefly, ForteBio affinity measurements were performed by loading IgGs on-line onto AHQ sensors. Sensors were equilibrated off-line in assay buffer for 30 min and then monitored on-line for 60 seconds for baseline establishment. For avid binding measurement, sensors with loaded IgGs were exposed to 100 nM antigen (human SIRPA or SIRPβ1 Fc fusion) for 3 min, afterwards they were transferred to assay buffer for 3 min for off-rate measurement. Additional avid binding was determined by loading biotinylated SIRPA monomer on SA sensors and exposure to 100 nM IgG in solution. Monovalent binding measurements were obtained by loading human SIRPA or SIRPβ1 Fc fusion antigens to AHQ sensor and followed by exposure to 100 nM anti-SIRPA antibody Fab. Additional monovalent measurements were made by loading biotinylated human SIRPA or SIRPβ1 monomer to SA sensor followed by exposure to 100 nM Fab in solution. Kinetics data were fit using a 1:1 binding model in the data analysis software provided by ForteBio.

Human SIRPb D1 Fc = Human SIRPb D1 Fc (human, UniProt O00241 30-148, limits assumed); test: ForteBio IgG avid;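 further: antibody IgG captured on AHQ biosensors, then 100 nM Fc-fused SIRP antigen applied for 3 min, followed by 3 min buffer dissociation, kinetics fitted to a 1:1 model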
Chain of Human SIRPb D1 Fc (O00241 30-148 limits assumed): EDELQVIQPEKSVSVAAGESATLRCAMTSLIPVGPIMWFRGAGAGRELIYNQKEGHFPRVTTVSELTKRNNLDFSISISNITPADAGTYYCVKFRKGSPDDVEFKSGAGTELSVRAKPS
Description: as §1

[2] = target: T4, human SIRPA overexpressed on CHO cells (human, UniProt P78324 31-504); test: flow, CHO-huSIRPA;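 further: Anti-SIRPA antibodies applied at 1 µg/mL for 1 h on ice, binding read by flow cytometry using a PE-labelled secondary antibody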
T4 construct: also called CHO-huSIRPA

[3] = target: T1, mouse SIRPA overexpressed on CHO cells; test: flow, CHO-muSIRPA; remark: listed apart in the source;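 on relative MFI: antibody binding measured by flow cytometry: cells stained with 1 ug/ml test antibody for 1 h on ice, detected with PE-labelled secondary antibody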
[4] = target: T5, human SIRPA Fc fusion antigen (human, UniProt P78324 31-373); test: ForteBio Fab monovalent
T5 construct: heterologous signal peptide; not shown: human IgG1 Fc

[5] = target: T6, biotinylated human SIRPA (monomer) (human, UniProt P78324 31-373, limits assumed, biotinylated); test: MSD-SET, Fab, equilibrium;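 further: solution equilibrium titration, free antigen captured on antibody-coated MSD plates and detected by electrochemiluminescence with labeled streptavidin, percent free antigen versus titrated antibody fit to quadratic model for KD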
T6 construct: monomer made by IdeS cleavage of a SIRPA Fc fusion; also called recombinant human SIRPA
Description: Antibodies (20 nM in PBS) were coated onto standard bind MSD-ECL plates overnight at 4° C. or at room temperature for 30 min. Plates were then blocked with 1% BSA for 30 min with shaking at 700 rpm, followed by three washes with wash buffer (PBSF+0.05% Tween 20). SET samples were applied and incubated on the plates for 150s with shaking at 700 rpm followed by one wash. Antigen captured on a plate was detected with 250 ng/ml sulfotag-labeled streptavidin in PBSF by incubation on the plate for 3 min. The plates were washed three times with wash buffer and then read on the MSD Sector Imager 2400 instrument using 1× Read Buffer T with surfactant. The percent free antigen was plotted as a function of titrated antibody in Prism and fit to a quadratic equation to extract the KD. To improve throughput, liquid handling robots were used throughout MSD-SET experiments, including SET sample preparation.

| Binder | binding result [1] | Kd (Human SIRPA D1 Fc) [nM] | binding result (Mouse SIRPA D1 Fc) | binding result (Human SIRPb D1 Fc) | relative MFI [2] [fold over background] | relative MFI [3] [fold over background] | Kd [4] [nM] | Kd [5] [nM] |
| --- | --- | --- | --- | --- | --- | --- | --- | --- |
| B1 | no binding (tested: 1 ug/ml) | 23.6 | no binding (tested: 100 nM) | no binding (tested: 100 nM) | 0.63 | 0.53 | – | – |
| B2 | no binding (tested: 1 ug/ml) | 20 | no binding (tested: 100 nM) | no binding (tested: 100 nM) | 1.47 | 0.545 | – | – |
| B3 | no binding (tested: 1 ug/ml) | 22.2 | no binding (tested: 100 nM) | no binding (tested: 100 nM) | 4.85 | 0.539 | – | – |
| B4 | no binding (tested: 1 ug/ml) | 30.2 | no binding (tested: 100 nM) | no binding (tested: 100 nM) | 0.87 | 0.491 | – | – |
| B5 | no binding (tested: 1 ug/ml) | 16.5 | no binding (tested: 100 nM) | no binding (tested: 100 nM) | 7.09 | 0.557 | – | – |
| B6 | no binding (tested: 1 ug/ml) | 21.4 | no binding (tested: 100 nM) | no binding (tested: 100 nM) | 0.595 | 0.518 | – | – |
| B7 | no binding (tested: 1 ug/ml) | 2.44 | no binding (tested: 100 nM) | no binding (tested: 100 nM) | 98.3 | 0.527 | – | – |
| B8 | no binding (tested: 1 ug/ml) | 10.5 | no binding (tested: 100 nM) | no binding (tested: 100 nM) | 0.56 | 0.479 | – | – |
| B9 | no binding (tested: 1 ug/ml) | 15.4 | no binding (tested: 100 nM) | no binding (tested: 100 nM) | 11.3 | 0.479 | – | – |
| B10 | no binding (tested: 1 ug/ml) | 4.31 | no binding (tested: 100 nM) | no binding (tested: 100 nM) | 50.8 | 0.738 | – | – |
| B11 | – | – | – | – | – | – | 1.62 | 0.18 |
| B12 | – | – | – | – | – | – | 1.67 | 0.42 |
| B13 | – | – | – | – | – | – | 3.16 | 1.1 |
| B14 | – | – | – | – | – | – | 1.44 | 0.31 |
| B15 | – | – | – | – | – | – | 2.26 | 0.22 |
| B16 | – | – | – | – | – | – | 1.53 | 0.084 |
| B17 | – | – | – | – | – | – | 0.689 | 0.14 |
| B18 | – | – | – | – | – | – | 1.53 | 0.37 |
| B19 | – | – | – | – | – | – | 2.02 | 0.64 |
| B20 | – | – | – | – | – | – | 1.44 | 0.27 |
| B21 | – | – | – | – | – | – | 4.95 | 0.88 |
| B22 | – | – | – | – | – | – | 3.61 | 1.2 |
| B23 | – | – | – | – | – | – | 1.64 | 0.42 |
